The RNAGym collection of RNA variant scans (doi:10.1073/pnas.2313332121)
Variants at the floor of the assay were thinned out.

B1: TPR 5TU (parent)
chain: GGAUCUUCUCGAUCUAACAAAAAAGACAAAUCUGCCACAAAGCUUGAGAGCAUCUUCGGAUGCAGAGGCGGCAGCCUUCGGUGGCGCGAUAGCGCCAACGUUCUCAACUAUGACACGCAAAACGCGUGCUCCGUUGAAUGGAGUUUAUCAUG

Variants of: B1
Assay: polymerase ribozyme fitness, log enrichment relative to wild type (log ratio); higher = more active; in vitro selection for triplet polymerase activity
Summary of the method: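 Fitness is a logarithmic measure of how a genotype enriched relative to the wild type, with replicate averages weighted by inverse variance. The logarithm uses base 2, and enrichment came from Illumina sequencing of input and output libraries. Those libraries were PCR-built, transcribed mutants of each subunit of a heterodimeric triplet polymerase ribozyme, passed through one triplicate in vitro selection round that included frozen incubation at −7 °C, gel excision of extended constructs and streptavidin-bead capture. Genotypes were kept only if they had ≥10 input reads and ≥1 read per output.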

Variant	polymerase ribozyme fitness (log ratio)
GGAUCUUCUCGAUCUAACAAGAAAGACAAAUCUGCCACAAAGCUUGAGAGCAUCUUCGGAUGCAGAGGCGGCAGCCUUCGGUGGCGCGAUAGCGCCAACGUUCUCAACUAUGACACGCAAAACGCGUGCUCCGUUGAAUGGAGAUUAUCAUG	0.357
GGAUCUUCUUGAUCUACCAAAAAAGACAAAUCUGCCAUAAAGCUUGAGAGCAUCUUCCGAUGCAGAGGCGGCAGCCUUCGGUGGCGCGAUAGCGCGAACGUUCUCAACUAUGACACGCAAAACGCGUGCUCCGUUGAAUGGAGUUUAUCAUG	-3.69
GGAUCUCCUCGAUCUAACAAAAAAGACAAAUCUGCCACAAAGCUGGAGAGCAUCUUCGGAUGCAGAGGCGGCAGCCUUCGGUCGCGCGAUAGCGCCAACGUUCUCAACUAUGACACGCAAAACGCGUUCUCGGUUGAAUGGAGUUUCUCAUG	≤ -4.2
GGAUCUUCUCGAUCUAACAAAUAAGACAAAUUUGCCACAAAGCUUGAGAGCAUCGCCGGAUGCAGAGGCGGCAGACUUCGGUGGCGCUAUAGCGCCAACGUUCUUAACUAUGACACGCAAAACGCGUGCUCCGUUGAAUGGUGUUUAUCAUG	≤ -4.2
GGAUCUUCUCGAUCUAACAAAAAAGACAAAUCUGCCACAAAGCUUGAGACCAUCUUCGGAUGCAGAGGCGGCAGCCUUCGGUGGCGAGAUAGCGCCAACGUUCUCAACUAUGAGACGCAAAACGCGUGCUCCGUUGAAUGGAGUUUAUCCUG	≤ -4.2
GGAUCUUCUCGAUCUAACAAAAAAGACAAAUCUGCCACAAAGCUUGAGAGCAUCUUCGCGUGCAGAGGCGGCAGCCUUCGGUGGAGCGAUAGCGCCAACGUUCUCAACUAUGACACGCAAAACGCGUGCUCCGUUGAAUGGAGUUUAUCAUG	-1.88
GGAUCUUCUCGAUCUAACAAAAAAGAUAAAUCUGCCACACAGCUUGAGAGCAUCAUCGGAUGCAGAGGCGGCAGCCUUCGGUGGCGCGAUAGCGCCAACGUUCUCAACUAUGAUACGCAAAACGCGUGCUCCGUUGAAGGGAGUUUAUCAUG	-3.95
GGAUCUUCUCGAUCUAACAAAAAAGACAAAUCUGCCACAAAGCUUGAGAGAAUCUACGGAUGCAGAGGCGGCAGCCUUCGGUGGCGCGAUAGCGACAUCGUUCUCAACUAUGACACGCAAAACGCGUGCUCCGUUGAAUGGAGUUUAUCAUG	-1.46
GGAUCUUCUCGAUCUAACAAAAAAGAUAAAUCUGCCACAAAGCGUGAGAGCAUCUACCGAAGCAGAGGCGGCAGCCUUCGGUGGCUCGAUAGCGCCAACGUUCUCAACUAUGACACGCAAAACGCGUGCUCCGUCGAAUGGAGUUUAUCAUG	≤ -4.2
GGAUCUUCUCGUUCUAACAAAAAAGACAAAUCUGCCACAAAGCUUGCGAGCCUCUGCGGAUGCCGAGGCGGCAGCCUUCGGUGGCACGGUAGCGCCAAUGUUCUCAACUAUGACACGCAAAACGCGUGCUCCGUUGAAUGGAGUUUAUCAUG	≤ -4.2
GGAUCAUCUCGAUCUAACAUAAAAGAUAAAUCUGCCACAAAGCUUAAGAGCAUCUUCGGAUGCAGAGGCGGCAGCCUUCGGUGGCGAGAUAGCGCCAACGUUCUCAACUAUGACACGCAAAACGCGUGCUCCGUUGAAUGGAGUUUAUCAUG	≤ -4.2
GGAUCUUCUCGAUCUAACAAAAAAGACAAAUCUGCCACAAAGCUUGAGAGCAUCUUCGGAUGCAGAGGCGGCAGCCUUCGGUGGAGCGAUAGCGCCAACGUUCUCAACUAUGACACGCAAAACGCGUGUUCCGUUGAAUGGAGUUUAUCAUG	-0.397
GGAUCUUCUCGAUCUACCAAAAAAGACAAAUCUGCCACAAAGCUUGAGAGCAUCUUCGGAUGCAGAGGCGGCAGCCUUCGGUGGCGCGAUAGCGCCAACGUUCUCAACUAUGACACGCAAAACGCGUGCUCCGUUGAAUGGAGUUUAUCAUG	0.315
GGAUCUUCUCGAUCUAACAUAAAAGACAAAUCUGCCACAAAGCUUGAGAGCAUCUUCGGAUGCAGAGGCGGCAGCCUUCGGUGGCGCGAUAGCGCCAACGUUCUCAACUAUGACACGCAAAACGCGUGCUCCGUUGAAUGGAGUUUAUCGUG	-1.81
GGAUCUUCUCGAUCUAACAAAAAAGACAAAUCUGCCACAAAGCUUGAGAGCAUCUUCGAAUGCAGAGGCGGCAGCCUUCGGUGGCGCGAUAGCGCCAACGUUCUCAUCUAUGACACGCAAAACGCAUGCUCCGUUGAAUGGAGUUUAUCAUG	-3.68
GGAUCUUCUCGAUCUAACAAAAAAGACAAAUCUGCCACAAAGCUUGAGAGCAUCUUCGGAUGCAGAGGCGGCAGCCUUCGGUGGUGCGAUAGCGCCAACGUUCUCAACUAUGGCACGCAAAACGCGUGCUCCGUUGAAUGGAGUUUAUCAUG	-1.86
GGAUAGUCUCGAUCUAACAAAAAAGACAAAUCUGCCACAAAGCUUAAGAGCAUCUACGGAUGCAGAGGCGGCAGCCUUCGGCGGCGCGAUAGAGCCAACGUUCUCAGCUAUGACACGCAAAACGUGUGCUCCGUUUAAUGGAGUUUAUCAUG	≤ -4.2
GGAUCUUCUCGAUCUAACAAAAAAGACAAAUCUGCCACAAAGCUUGAGAGCAUCUUCGGAUGCAGAGGCGGCAGCCUUCGGUGGCGCGAAAGCGUCAACGUUCUCAACUAUGACACGCAAAACGCGUGCUCCGUUGAAUGGAGUUUAUCAUG	≤ -4.2
GGACCUUCUCGAUCUAACAAAACAGACAAAUCUGCCGCAAAGCUUGAGAGCAACUUCGGAUGCAGAGGCGGCAGCCUUCGGUGGCGCGAUAGCGCCAACGUUCUCAACUAUGACACGCAAAACGCGUGCUCCGUUGAAUGGAGUUUAUCAUG	≤ -4.2

Variant	polymerase ribozyme fitness (log ratio)
GGAUCUUCUCGAUCUAACAAAAAAGACAAAUCUGCCACAAAGCUUGAAAGCAUCUUCGGAUGCAGAGGCGGCGGCCUUCGGUGGCGGGUUAGCGCAAACGUUCUCAACUAUGACACGCAAAACGCGUGCUCCGUUAAAUGGAGUUUAUCAUG	≤ -4.2
GGAUCUUCUCGAUCUAACAAAAAAGACAAAUCUGCCACAUAGCUUGAGAGCAUCAUCCGAUGCAGAGGCGGCAGCCUUCGGUGGGGCGAUAGCGCCAACGUUCUCAACUAUGACACGCUAAACGCGUGCUCCGUUGAAUGGAGUUUAUCAUG	-2.59
GGAUCUUCUCGAUGUAACAAAAAAGAGAAAUCUGCCACAAAGCUUGAGAGCAUCUUCAGAUGCAGAGGCGGCAGCCUUCGGUGGCUCGAUAGCGCCAACGUUCUCAACUAUGACACGCAAAACGCGCGCUCCGUUGAAUGGAGUUUAUCAUG	-4.16
GGAUCUUCUCGAUCUAACAAAAAAGACAAAUCUGCCACAAAGCUUGAGAGCAUCUUCGGAUGCAGAGGCGGCAGCCUUCGGUGGCUCGAUAGCGCCAACGUUCUCAACUAUGACACGCAAAAGGCGUGCUCCGUUGAAUGGAGUUUAUCAUG	-1.55
GGAUCUUCUCGAUCUAACAAAAAAGACAAAUCCGCCACAAAGCUUGAGAGCAUCUGCGGAUGCAGAGGCGGCAGCCUUCGGUGGCGCGAUAGUGCCAACGUUCUCAACUAUGACACGCAAAACGCGUGCUCCGUUGAAUGGAGUUUAUCAUG	≤ -4.2
GGAUCUUCUUGAUCUAACAAAAAAGACAAAUCUGCCACAAAGCUUGAGAGCAAUAUCGGAUGCAGAGGCGGCAGGCUUCGGUGGCGCGAUAGCGCCAACGUUCUUAACUAUGACACGCAAAACGCGUGCUCCGUUGAAUGGAUUCUAACAUG	≤ -4.2
GGAUCUUCUCGAUCUAACAAAAAAGACAAAUCUGCCACAAAGCUUGAGAGCAUCUUCGGAUGCAGAGGGGGCAGCCUUCGGUGGCGCGAUAGUGCCAACGUUCUCAACUAUGACACGCAAAACGCGUGCUCCGUUGAAUGGAGUUUAUCAUG	-3.1
GGAUCUUCUCGAUCUAACAAUAAAGACAAAUCUGCCACAAAGCUUGAGGGCAUCUUCGGAUGCAGAGGCGGCAGCCUUCGGUGGCGCGAUAGCGCCAGCGUUCUCAACUAUGACACGCAAAACGCGUGCUCCGUUGAAUGGAGUUUAUCAUG	-0.555
GGAUCUUCUCGAUCUAACAAAAAAGACAAAUCUGCCACAAAGCUUGAGAGCAUCUUCGGAAGCAGAGGCGGCAGCCUUCGGUGGCGCGAUAGCGCUAACGUUCUCAACUAUGACACGCAAAACGCGUGCUCCGUUGAAUGGAGUUUAUCAUG	-1.32
GGAUCUUCUCGAUCUAACAAAAAAGACAAAUCUGCCACAAAGCUUGAGAGCAUCUUCGGAUGCAGAGGCGGCAGCCUUCGGUGGCGCGAUAGUGCCAACGUUCUCAACUAUGACACGCAAAACGCGUGCUCCGUUGGAUGGAGUUUAUUAUG	-2.47
GGAUCUUCUCGAUCUAACAAAAAAGACAAAUCUGCCACAAAGCUUGAGAGCAUCUUCGGAUGCAGAGGCGGCAGCCUUCGGUGACGCGAUAGCGACAACGUUCCCAACUAUGACACGCAAAACGCGUGCUCCGUUGAAUGGAGUUUAUCAUG	-0.367
GGAUCGUCUCGAUCUAACAAAAAAGACAAAUCUGCCACAAAGCUUGAGAGCAUCUUCGUAAGCAGAGGCGGUAGCCUUCGGUGGCGCGGAAGGGCCAACGUUCUCAAUUAUGACACGCAAAUCGCGUGCUCCGUUGAAUGGAGUUUAUCAUG	≤ -4.2
GGAUCUUCUCGAUCUAACAAAAAAGACAAAUCUGCCACAAAGCUUGAGAGCAUCGUCGCAUGCAGAGGCGGCAGCCUUCGGUGGCACGAUAGCGCCAACGUUUUCAACUAUGACACGCAAAACGCGUGCUCCGUUGAAUGGAGUUCAUCAUG	-2.47
GGAUCUUCUCGAUCUAACAAAAAUGACAAAUCUGCCACAAAGCUUGAAGACAUCAUCGGAUGCAGAGGCGGCAGCCUUCGGUGGCGCGAUAGCGCCAACGUUCUCAACUAUGACACGCAAAAAGCGUGCUCCGUUCAAUGGAGUUUAUCAUG	≤ -4.2
GGAUCUUCUCGAUCUAACAAAAAAGACAAAUCUGCCACAAAGCUUGAGAGCGUCUUCGGAUGCAGAGGCGGCAGCCUUCGGUGGCGCGAUAGCGCCAACGUUCUCAACUAUGACACGCAAAACGCGUGCUCCGUUGAAUGGUGUUUAUCAUG	-0.597
GGAUCUUCUCGAUCUGACAAAAAAGAAAAAUCUGCCACAAAGCUUGAGAGCAUCUUCCGAUGCAGAGGCGGCAGCCUUCGGUGGAGCGAUAGCGCGAACGUUCUCAACUAUGACAUGCAAAACGCGUGCUCCGUUGAAUGGACUUUAACAUG	≤ -4.2
GGAUCUUCUCGAUCUAACAAAAAAGACAUAUCUGCCACAAAGCUUGAGAGCAUCUUCGGAUGCAGAGGCGGCAGCCUUCGGUGGCGCGAUAGCGCCAACGGUCGCAACUAUGACACGCAAAACGCGUGCUCCGUUGAAUGGAGUUUAUCAUG	≤ -4.2
GGAUCUUCUCGAUCUAACAAAAAAGACAAUUCUGCCACAAAGCUUGAGAGCAUCUUCGGAUGCAGAGGCGGCAGCCUUCGGUGGCGCGAUAGCGCCAACGGUCUCAACUAUGACACGCAAAACGCGUGCUCCGUUGAAUGGAGUUUAUCAUG	-3.89
GGAUCUUCUCGAUCUAACAAAAAAGACAAAUCUGCCACAAAGCUUGAGUGCAUCUUCGGAUGCAGAGGCGGCAGCCUUCGGUGGCGCGAUAGCGCCAACGUUCUCAACUAUGACACGCAAAACGCGUGCUCCUUUGAAUGGAGUUUAUCAUG	-3.93
